The values that follow come from US20250313641A1.

For the assay, the target named is cynomolgus monkey IL-2 receptor (IL-2R) on cyno PBMC subsets (cynomolgus monkey) (UniProt Q38J85). Description: cell-based or functional assay.
Chain of cynomolgus monkey IL-2 receptor (IL-2R) on cyno PBMC subsets (cynomolgus monkey) (Q38J85 27-551, chain 1 of 2): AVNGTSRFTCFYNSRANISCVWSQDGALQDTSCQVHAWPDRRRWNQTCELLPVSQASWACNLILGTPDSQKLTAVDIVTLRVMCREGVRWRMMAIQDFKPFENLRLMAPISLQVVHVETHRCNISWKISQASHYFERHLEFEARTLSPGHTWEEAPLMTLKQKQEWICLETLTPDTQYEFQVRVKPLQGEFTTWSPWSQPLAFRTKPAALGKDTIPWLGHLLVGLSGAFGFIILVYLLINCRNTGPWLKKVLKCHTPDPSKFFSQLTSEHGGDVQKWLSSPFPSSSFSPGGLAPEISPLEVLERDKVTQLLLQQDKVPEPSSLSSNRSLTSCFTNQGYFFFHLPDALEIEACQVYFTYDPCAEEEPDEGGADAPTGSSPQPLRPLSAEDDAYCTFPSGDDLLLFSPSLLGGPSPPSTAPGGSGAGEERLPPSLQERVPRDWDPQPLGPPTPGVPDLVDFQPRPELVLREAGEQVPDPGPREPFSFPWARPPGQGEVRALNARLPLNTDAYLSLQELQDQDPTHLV
Chain of cynomolgus monkey IL-2 receptor (IL-2R) on cyno PBMC subsets (cynomolgus monkey) (chain, as listed by the source, chain 2 of 2): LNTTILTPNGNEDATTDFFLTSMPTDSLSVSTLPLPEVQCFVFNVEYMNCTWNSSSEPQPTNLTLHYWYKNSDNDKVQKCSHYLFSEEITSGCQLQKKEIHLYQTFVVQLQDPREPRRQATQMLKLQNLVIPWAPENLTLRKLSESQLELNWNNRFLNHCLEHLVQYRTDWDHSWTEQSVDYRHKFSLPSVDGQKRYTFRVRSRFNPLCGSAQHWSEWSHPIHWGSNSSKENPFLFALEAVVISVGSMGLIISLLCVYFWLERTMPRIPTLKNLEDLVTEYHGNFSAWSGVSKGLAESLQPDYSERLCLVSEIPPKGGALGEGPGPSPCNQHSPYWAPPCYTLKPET

In the case of “Recombinant human IL-2 (from UniProt P60568 21-153) (ligand)”, the Ki67 (Cyno) EC50 [nM], CD4^+ T cells worked out at 0.01 nM; the Ki67 (Cyno) EC50 [nM], CD8^+ T cells was found to be 0.05 nM; the Ki67 (Cyno) EC50 [nM], T-regs is 0.009 nM; the Ki67 (Cyno) Emax (%), CD4^+ T cells came out at 90%. This substance also yielded a Ki67 (Cyno) Emax (%), CD8^+ T cells of 88%; a Ki67 (Cyno) Emax (%), NK cells of 92%; a Ki67 (Cyno) Emax (%), T-regs of 69%.
